# Values quoted from earlier work, collected in patent publication US20260263505A1, “Uses of Compositions Comprising a Prebiotic Component” (Mead Johnson Nutrition Company, priority 2021, published 2026).
# B1: lactoferrin: multifunctional iron-binding glycoprotein naturally present in milk; test diet of Mika et al. (protein, UniProt P24627 20-708, looked up)
# Lactotransferrin: APRKNVRWCTISQPEWFKCRRWQWRMKKLGAPSITCVRRAFALECIRAIAEKKADAVTLDGGMVFEAGRDPYKLRPVAAEIYGTKESPQTHYYAVAVVKKGSNFQLDQLQGRKSCHTGLGRSAGWIIPMGILRPYLSWTESLEPLQGAVAKFFSASCVPCIDRQAYPNLCQLCKGEGENQCACSSREPYFGYSGAFKCLQDGAGDVAFVKETTVFENLPEKADRDQYELLCLNNSRAPVDAFKECHLAQVPSHAVVARSVDGKEDLIWKLLSKAQEKFGKNKSRSFQLFGSPPGQRDLLFKDSALGFLRIPSKVDSALYLGSRYLTTLKNLRETAEEVKARYTRVVWCAVGPEEQKKCQQWSQQSGQNVTCATASTTDDCIVLVLKGEADALNLDGGYIYTAGKCGLVPVLAENRKSSKHSSLDCVLRPTEGYLAVAVVKKANEGLTWNSLKDKKSCHTAVDRTAGWNIPMGLIVNQTGSCAFDEFFSQSCAPGADPKSRLCALCAGDDQGLDKCVPNSKEKYYGYTGAFRCLAEDVGDVAFVKNDTVWENTNGESTADWAKNLNREDFRLLCLDGTRKPVTEAQSCHLAVAPNHAVVSRSDRAAHVKQVLLHQQALFGKNGKNCPDKFCLFKSETKNLLFNDNTECLAKLGGRPTYEEYLGTEYVTAIANLKKCSTSPLLEACAFLTR
# System: Rats
# Conditions: after four weeks of diet, acute inescapable stressor
molecule,measurement,value
B1,stress-evoked cfos mRNA in the dorsal raphe nucleus,reduce
